Source: patent publication US20210147523A1 (TEIJIN PHARMA, published 2021)

T1: human SPNS2 G134A mutant (human, UniProt Q8IVW8 1-549)
T1 sequence: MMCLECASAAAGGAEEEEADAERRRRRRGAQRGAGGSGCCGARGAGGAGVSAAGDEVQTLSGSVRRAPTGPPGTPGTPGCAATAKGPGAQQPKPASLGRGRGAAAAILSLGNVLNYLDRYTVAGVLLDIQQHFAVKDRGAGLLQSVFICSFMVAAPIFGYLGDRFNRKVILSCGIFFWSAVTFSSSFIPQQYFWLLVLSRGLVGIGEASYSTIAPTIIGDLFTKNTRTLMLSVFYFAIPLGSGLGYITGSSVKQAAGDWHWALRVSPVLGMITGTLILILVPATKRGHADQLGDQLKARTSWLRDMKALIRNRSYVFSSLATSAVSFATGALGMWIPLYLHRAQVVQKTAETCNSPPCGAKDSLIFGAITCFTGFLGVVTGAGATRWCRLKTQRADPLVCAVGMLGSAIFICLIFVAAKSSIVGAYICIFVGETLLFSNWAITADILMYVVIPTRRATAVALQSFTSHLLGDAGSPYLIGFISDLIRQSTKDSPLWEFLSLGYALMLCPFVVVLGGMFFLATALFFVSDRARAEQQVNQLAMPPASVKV

T2: human SPNS2 I129A mutant (human, UniProt Q8IVW8 1-549)
T2 sequence: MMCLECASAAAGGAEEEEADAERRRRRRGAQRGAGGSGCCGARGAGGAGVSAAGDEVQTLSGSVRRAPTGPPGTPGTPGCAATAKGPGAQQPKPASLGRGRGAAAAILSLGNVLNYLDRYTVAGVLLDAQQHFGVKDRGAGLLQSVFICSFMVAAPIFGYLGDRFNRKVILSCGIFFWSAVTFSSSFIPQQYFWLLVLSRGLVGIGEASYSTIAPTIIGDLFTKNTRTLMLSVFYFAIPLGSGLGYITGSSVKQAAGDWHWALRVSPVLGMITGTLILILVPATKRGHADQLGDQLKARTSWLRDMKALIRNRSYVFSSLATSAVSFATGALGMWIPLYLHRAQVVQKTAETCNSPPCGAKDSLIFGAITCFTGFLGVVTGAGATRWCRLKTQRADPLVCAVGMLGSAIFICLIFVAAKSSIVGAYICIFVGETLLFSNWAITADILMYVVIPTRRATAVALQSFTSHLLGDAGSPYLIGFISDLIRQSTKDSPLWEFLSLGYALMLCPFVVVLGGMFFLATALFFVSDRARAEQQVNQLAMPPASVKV

T3: human SPNS2 L196A mutant (human, UniProt Q8IVW8 1-549)
T3 sequence: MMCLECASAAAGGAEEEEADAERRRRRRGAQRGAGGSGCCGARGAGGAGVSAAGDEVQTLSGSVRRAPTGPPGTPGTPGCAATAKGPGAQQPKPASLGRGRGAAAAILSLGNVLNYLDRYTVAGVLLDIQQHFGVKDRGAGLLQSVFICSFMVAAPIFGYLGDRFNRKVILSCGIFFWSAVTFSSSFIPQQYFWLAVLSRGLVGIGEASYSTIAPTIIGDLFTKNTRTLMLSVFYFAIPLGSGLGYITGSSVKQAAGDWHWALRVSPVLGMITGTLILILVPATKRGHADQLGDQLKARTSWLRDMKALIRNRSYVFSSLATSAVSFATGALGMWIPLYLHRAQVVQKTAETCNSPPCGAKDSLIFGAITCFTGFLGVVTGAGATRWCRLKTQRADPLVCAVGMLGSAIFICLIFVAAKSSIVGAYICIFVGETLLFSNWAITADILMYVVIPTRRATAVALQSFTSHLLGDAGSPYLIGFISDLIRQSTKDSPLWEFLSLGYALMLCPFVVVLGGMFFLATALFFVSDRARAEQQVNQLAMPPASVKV


Key:
Assay in all cases: flow cytometry
human SPNS2 G134A mutant = molecular target: T1, human SPNS2 G134A mutant
human SPNS2 I129A mutant = molecular target: T2, human SPNS2 I129A mutant
human SPNS2 L196A mutant = molecular target: T3, human SPNS2 L196A mutant

| Binder | binding ratio vs native type (human SPNS2 G134A mutant) [ratio] | binding ratio vs native type (human SPNS2 I129A mutant) [ratio] | binding ratio vs native type (human SPNS2 L196A mutant) [ratio] |
| --- | --- | --- | --- |
| 64-0807A (antibody, IgG2b, V domains shown) VH: EVQVVESGGGLVQPGRSMKLSCAALGFTFRDYYMAWVRQTPTKGLEWVAAISTGGGNTYYRDSVKGRFTISRDNAKSTLYLQMDSLRSDDTATYYCARNPYGNYFDYWGQGVMVTVSS VL: QFVLSQPNSVSTNLGSTVKLSCKRSTGNIGSNYVHWYQRHEGRSPTTLIYRDDKRPNGVPDRFSGSIDRSSNSALLTINNVQTEDEADYFCQSYSGGMYLFGGGTKLTVL | < 0.5 |  |  |
| 65-0810G (antibody, IgG2b, V domains shown) VH: EVHLVESGGGLVQPGRSMKLSCTASGFTFNNYYMAWVRQAPTKGLEWVASISTGGGYTYYRDSVKGRFTISRDNTGNTLYLQMDSLRSEDTATYYCARCWELPYWGQGVMVTVSS VL: QFVLTQPNSVSTNLGSTVKLSCRRSSGNIGNNYVNWYRQHEGRSPTTMIYRDDTRPDGVPNRFSGSIDRSSNSALLTINNVRPEDEAYYFCQSYSGSIYIFGGGTKLTVL |  | < 0.5 | < 0.5 |
